# Measured values from US20180282373.
# Target: purified recombinant full-length WDR5 (UniProt P61964)
substance,measurement,value
"GST-tagged MLL2 Win-SET domain, MLL2(5319-5537), Win motif arginine to alanine mutant","core complex H3K4 dimethylation activity, mutant against wild type",a 2-fold increase in this activity with the MLL2 Win motif variant
"GST-tagged SETd1A Win-SET domain, Setd1A(1474-1708), Win motif arginine to alanine mutant","core complex methyltransferase activity, H3K4me1 and H3K4me2 peptides, mutant against wild type",at least a 2-fold reduction in activity compared to their wild-type counterparts
"GST-tagged MLL4 Win-SET domain, MLL4(2490-2715), Win motif arginine to alanine mutant","core complex methyltransferase activity, H3K4me1 peptide, mutant against wild type",showed similar amounts of activity compared to that of their wild-type counterparts
